In the supplement of paper PMC10567573:

B1: BTBD1 (parent)
chain: YGSIHGPTDYQVNIQIIEYEKKQT
B2: KLHL20 (parent)
chain: YQDMIYAVGGRDDTTELSSAERYN

Variants of: B1
Test: protein stability index of a GFP-peptide fusion (GPS, HEK-293T) (PSI 1-6); higher = more stable
Details: c terminus: a fixed tail appended
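Note: lentivirally expressed fusions sorted by FACS into six bins by GFP to DsRed ratio, PSI derived from sequencing read proportions per bin multiplied by bin number.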

Protein stability index, by site and new letter:
K22: T 1.93, R 2.14
Q11: S 2.34, R 2.32, H 2.48
E18: S 1.88, Y 3.61, T 2.07, P 2.17, N 2.17
I16: H 3.91, A 3.8, R 3.46, C 2.96
Y10: P 4.31
I4: H 2.79, L 2.94
V12: G 3.52, Y 2.87, E 4.08
G2: Y 2.03, A 1.62, N 3.28, V 3.34
G6: N 3.4, K 3
Y19: A 3.19, L 2.54
E20: V 1.84
T8: Y 2.56, C 2.25, W 3.36
I17: W 2.71, T 3.47, R 2.87, S 3.31, Q 3.35
D9: Q 2.18, C 1.94, Y 2.08, N 1.98, T 2.42, R 2.65
T24: R 2.69, C 2.16, N 2.9
Q23: D 2.46, L 1.6, R 2.51
I14: S 3.08, N 3.98, D 3.75, A 3.47
S3: C 2.06, L 2.94, W 2.17, F 2.64, E 3
P7: F 2.47, E 3.33, S 2.76, T 2.73, N 2.84
H5: L 2.88
N13: R 2, D 2.59, P 3.23, F 1.39, L 2.22
K21: G 2.04, L 1.65, S 2.13, I 2.42, P 1.95, N 2.32, M 2.02, C 1.96
Y1: P 3.67

Variants of: B2
Test: as above
Details: c terminus: a fixed tail appended

Protein stability index of substitutions, site by site:
Y23: G 2.18, K 2.74, V 2.93, F 2.13, W 3, I 1.93, E 2.77, Q 3.05, S 2.54, P 2.72, A 1.82, T 2.37, N 2.59, D 2.98, M 2.29, H 2.64, R 2.77, C 2.32, L 2.25
R22: T 2.18, A 2.45, D 2.49, P 2.69, K 2.08, E 2.53, Y 2.63, F 2.48, M 2.03, H 2.38, W 2.56, S 2.48, L 2.15, N 1.92, I 2.16, C 2.52, Q 2.77, V 2.52, G 2.87
E21: C 2.23, M 2.75, Y 1.69, N 1.89, I 1.95, S 1.92, K 2.37, Q 1.95, P 2.55, F 2.28, R 1.75, W 1.58, T 2.11, D 2.29, G 1.94, A 2, V 2.09, H 2.04, L 1.95
A20: H 2.74, F 2.04, S 1.98, N 2.82, L 1.82, D 2.79, I 2.05, M 2.38, R 2.76, W 1.66, E 3.06, V 2.41, T 2.21, C 2.15, P 2.05, Q 2.91, G 2.29, K 2.03, Y 1.78
E16: L 2.67, S 1.91, Y 1.69, F 1.75, W 2.23, P 2.05, A 1.95, N 2.38, K 1.85, D 2.34, M 2.08, C 1.5, T 2.17, H 2.5, I 2.07, G 2.28, Q 2.36, R 2.51, V 2.78
D13: F 2.08, E 2.36, I 2.26, V 2.49, G 2, S 2.18, H 1.98, N 2.01, R 1.75, T 2.18, Y 1.97, W 1.77, M 1.34, C 1.8, A 1.66, K 2.23, Q 2.11, L 2.06, P 2.03
S18: D 2.43, V 2.32, R 1.99, Y 2.22, F 2.63, G 2.5, L 2.76, H 2.9, N 2.66, W 2.27, I 2.12, Q 2.22, T 2.1, K 2.25, C 2.07, A 2.03, M 2.07, P 2.1, E 2.02
R11: V 2.16, T 2.23, S 2.9, M 2.32, Y 1.91, P 2.57, N 2.49, Q 2.75, W 2.08
D12: C 2.01, Q 2.09, K 2.1, A 2.33, H 2.17, P 2.34, N 2.43, I 1.6, Y 1.9, T 1.58, G 2.47, V 1.53, R 1.78, L 2.21, W 1.8, M 1.76, F 1.45, S 2.32, E 2.74
N24: W 1.93, K 2.16, D 3.62, H 2.44, M 2.08, F 2.41, I 2.02, P 2.42, Q 2.48, E 2.66, Y 2.31, T 1.85, C 2.02, L 2.69, V 1.75, G 2.99, A 1.75, R 2.7, S 2.24
S19: P 2.66, L 2.02, T 2.54, W 1.99, V 1.99, M 2.01, E 2.45, Q 2.25, F 2.31, I 2.01, H 2.33, K 2.34, N 2.11, Y 1.8, G 2.32, C 2.16, D 2.43, R 2.53, A 2.87
L17: V 2, A 2.44, G 2.82, Y 2.03, Q 2.24, M 2.35, F 2.14, W 2.45, H 2.32, K 2.41, N 2.38, D 2.12, T 2.89, I 2.33, E 2.58, C 2.52, P 2.49, S 2.06, R 2.19
T14: S 2.48, A 1.82, R 2.13, N 2.36, Q 2.35, E 2.78, D 2.79, H 1.98, P 2.89, V 2.25, K 2.17, C 2.47, I 2.09, Y 2.1, G 2.47, F 2.18, L 2.48, W 1.56, M 2.01
T15: M 1.92, F 2.38, E 2.44, R 2.08, I 2.09, A 2.4, L 2.58, W 1.8, P 2.17, Q 3.13, V 2.08, N 2.33, Y 1.8, C 2.49, S 2.46, D 2.49, H 2.19, K 2.13, G 2.21
